Reference: US10941182 (Amgen, dated 2021)
Starred links: 1 amine or outer side, 2 acyl side, 3 side chain; linkers in the order of their positions; H or OH if unused. Non-standard residues stand in square brackets, D forms with d. *: point of attachment. PEG12 = NCCOCCOCCOCCOCCOCCOCCOCCOCCOCCOCCOCCOCCC(=O)O; Oic = O=C(O)[C@@H]1C[C@@H]2CCCC[C@@H]2N1; Phe(4-Cl) = N[C@@H](Cc1ccc(Cl)cc1)C(=O)O; γGlu = O=C(O)[C@H](CCC(=O)[*:2])N[*:1]; NMeR = CN[C@@H](CCCNC(=N)N)C(=O)O; Tridecanoyl = CCCCCCCCCCCCC(=O)*; Cha = N[C@@H](CC1CCCCC1)C(=O)O; Nle = CCCC[C@H](N)C(=O)O; AEEA = NCCOCCOCC(=O)O; Aib = CC(C)(N)C(=O)O

T1: human APJ receptor (human, UniProt P35414 1-380)
T1 sequence (looked up): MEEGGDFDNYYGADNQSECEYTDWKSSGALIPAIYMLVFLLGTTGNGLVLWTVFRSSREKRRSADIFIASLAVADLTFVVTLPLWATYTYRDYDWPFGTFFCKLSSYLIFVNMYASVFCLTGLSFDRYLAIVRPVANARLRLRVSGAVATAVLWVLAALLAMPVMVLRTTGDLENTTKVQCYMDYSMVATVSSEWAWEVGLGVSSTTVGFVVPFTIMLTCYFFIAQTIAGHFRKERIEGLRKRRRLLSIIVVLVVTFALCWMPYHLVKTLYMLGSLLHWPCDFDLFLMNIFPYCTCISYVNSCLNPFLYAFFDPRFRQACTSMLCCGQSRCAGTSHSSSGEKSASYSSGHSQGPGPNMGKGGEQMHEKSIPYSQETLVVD

T2: rat APJ receptor (rat, UniProt Q9JHG3 1-377)
T2 sequence (looked up): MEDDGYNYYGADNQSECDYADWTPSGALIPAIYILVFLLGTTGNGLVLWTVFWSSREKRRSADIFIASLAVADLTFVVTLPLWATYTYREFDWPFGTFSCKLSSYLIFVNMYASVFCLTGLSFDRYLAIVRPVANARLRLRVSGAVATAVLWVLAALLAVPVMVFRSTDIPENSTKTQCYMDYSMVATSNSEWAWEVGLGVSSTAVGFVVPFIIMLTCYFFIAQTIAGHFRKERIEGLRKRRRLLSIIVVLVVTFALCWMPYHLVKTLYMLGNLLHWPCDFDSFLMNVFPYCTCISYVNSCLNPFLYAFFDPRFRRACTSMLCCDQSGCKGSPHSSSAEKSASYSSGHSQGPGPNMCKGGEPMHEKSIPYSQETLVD

B1: modified apelin polypeptide SEQ ID NO: 546 (peptide)
peptide: Tridecanoyl-D[AEEA][AEEA][dQ]RP[NMeR][Cha]SHKG[Oic][Nle][Aib][Phe(4-Cl)]-OH
B2: modified apelin polypeptide SEQ ID NO: 538 (peptide)
peptide: Tridecanoyl-[dD][AEEA][AEEA][dQ]RP[NMeR][Cha]SHKG[Oic][Nle][Aib][Phe(4-Cl)]-OH
SMILES: CCCCCCCCCCCCC(=O)N[C@H](CC(=O)O)C(=O)NCCOCCOCC(=O)NCCOCCOCC(=O)N[C@H](CCC(N)=O)C(=O)N[C@@H](CCCNC(=N)N)C(=O)N1CCC[C@H]1C(=O)N(C)[C@@H](CCCNC(=N)N)C(=O)N[C@@H](CC1CCCCC1)C(=O)N[C@@H](CO)C(=O)N[C@@H](Cc1c[nH]cn1)C(=O)N[C@@H](CCCCN)C(=O)NCC(=O)N1[C@H](C(=O)N[C@@H](CCCC)C(=O)NC(C)(C)C(=O)N[C@@H](Cc2ccc(Cl)cc2)C(=O)O)C[C@@H]2CCCC[C@@H]21
B3: modified apelin polypeptide SEQ ID NO: 547 (peptide)
peptide: Tridecanoyl-[dE][AEEA][AEEA][dQ]RP[NMeR][Cha]SHKG[Oic][Nle][Aib][Phe(4-Cl)]-OH
SMILES: CCCCCCCCCCCCC(=O)N[C@H](CCC(=O)O)C(=O)NCCOCCOCC(=O)NCCOCCOCC(=O)N[C@H](CCC(N)=O)C(=O)N[C@@H](CCCNC(=N)N)C(=O)N1CCC[C@H]1C(=O)N(C)[C@@H](CCCNC(=N)N)C(=O)N[C@@H](CC1CCCCC1)C(=O)N[C@@H](CO)C(=O)N[C@@H](Cc1c[nH]cn1)C(=O)N[C@@H](CCCCN)C(=O)NCC(=O)N1[C@H](C(=O)N[C@@H](CCCC)C(=O)NC(C)(C)C(=O)N[C@@H](Cc2ccc(Cl)cc2)C(=O)O)C[C@@H]2CCCC[C@@H]21
B4: modified apelin polypeptide SEQ ID NO: 539 (peptide)
peptide: Tridecanoyl-[γGlu][PEG12][dQ]RP[NMeR][Cha]SHKG[Oic][Nle][Aib][Phe(4-Cl)]-OH
SMILES: CCCCCCCCCCCCC(=O)N[C@@H](CCC(=O)NCCOCCOCCOCCOCCOCCOCCOCCOCCOCCOCCOCCOCCC(=O)N[C@H](CCC(N)=O)C(=O)N[C@@H](CCCNC(=N)N)C(=O)N1CCC[C@H]1C(=O)N(C)[C@@H](CCCNC(=N)N)C(=O)N[C@@H](CC1CCCCC1)C(=O)N[C@@H](CO)C(=O)N[C@@H](Cc1c[nH]cn1)C(=O)N[C@@H](CCCCN)C(=O)NCC(=O)N1[C@H](C(=O)N[C@@H](CCCC)C(=O)NC(C)(C)C(=O)N[C@@H](Cc2ccc(Cl)cc2)C(=O)O)C[C@@H]2CCCC[C@@H]21)C(=O)O
B5: modified apelin polypeptide SEQ ID NO: 507 (peptide)
peptide: XXQRPRLSHKGPXPF
modifications: {TDA} [Aeea] [Aeea] Q R P [NMeArg] L S H K G P [Nle] P [4-Cl-F] {COOH}: N-terminal tridecanoyl (TDA)-Aeea-Aeea; NMeArg, Nle, 4-Cl-F non-canonical; free C-terminal acid
B6: modified apelin polypeptide SEQ ID NO: 537 (peptide)
peptide: Tridecanoyl-E[AEEA][AEEA][dQ]RP[NMeR][Cha]SHKG[Oic][Nle][Aib][Phe(4-Cl)]-OH
SMILES: CCCCCCCCCCCCC(=O)N[C@@H](CCC(=O)O)C(=O)NCCOCCOCC(=O)NCCOCCOCC(=O)N[C@H](CCC(N)=O)C(=O)N[C@@H](CCCNC(=N)N)C(=O)N1CCC[C@H]1C(=O)N(C)[C@@H](CCCNC(=N)N)C(=O)N[C@@H](CC1CCCCC1)C(=O)N[C@@H](CO)C(=O)N[C@@H](Cc1c[nH]cn1)C(=O)N[C@@H](CCCCN)C(=O)NCC(=O)N1[C@H](C(=O)N[C@@H](CCCC)C(=O)NC(C)(C)C(=O)N[C@@H](Cc2ccc(Cl)cc2)C(=O)O)C[C@@H]2CCCC[C@@H]21
B7: Acetylated version of peptide in Fc-peptide conjugate #4 (SEQ ID NO: 92) (peptide)
peptide: Ac-QRP[NMeR][Cha]SHKG[Oic][Nle][Aib][Phe(4-Cl)]-OH
B8: Acetylated version of peptide in Fc-peptide conjugate #3 (SEQ ID NO: 95) (peptide)
peptide: QRPRLSHKGPXPF
modifications: {Acetyl-NH}Q[NMehArg]P[NMeArg][aMeLeu]SHKGP[Nle]P[4-Cl-F]{COOH: N-terminal acetyl; NMehArg, NMeArg, aMeLeu, Nle, 4-Cl-F non-canonical; free C-terminal acid
B9: Acetylated version of peptide in Fc-peptide conjugate #1 (SEQ ID NO: 70) (peptide)
peptide: QRPRLSHKGPXPF
modifications: {Acetyl-NH}Q[r]P[hArg][aMeLeu]SHKGP[Nle] P[4-Cl-F]{COOH}: N-terminal acetyl; r = D-Arg; hArg, aMeLeu, Nle, 4-Cl-F non-canonical; free C-terminal acid

target: T1, human APJ receptor; assay: cell-based or functional assay

| EC50 Human APJ Receptor (µM), GTPγS assay [µM] | Binder |
| --- | --- |
| 0.000478 | B1 |
| 0.000525 | B2 |
| 0.000404 | B3 |
| 0.000735 | B4 |
| 7.95e-05 | B5 |
| 0.00028 | B6 |

target: T2, rat APJ receptor; assay: cell-based or functional assay

| EC50 Rat APJ Receptor (µM), GTPγS assay [µM] | Binder |
| --- | --- |
| 0.00123 | B1 |
| 0.00189 | B2 |
| 0.00133 | B3 |
| 0.00354 | B4 |
| 0.000245 | B5 |
| 0.00108 | B6 |

target: T1, human APJ receptor; assay: cell-based or functional assay; remark: another data set of the same source

| EC50 Human APJ Receptor (µM), GTPγS assay [µM] | Binder |
| --- | --- |
| 0.000679 | B7 |

target: T2, rat APJ receptor; assay: cell-based or functional assay; remark: another data set of the same source

| EC50 Rat APJ Receptor (µM), GTPγS assay [µM] | Binder |
| --- | --- |
| 0.00393 | B8 |
| 0.00974 | B9 |
| 0.00323 | B7 |
